Assays:
Test in all cases: pull-down binding Z-score (relative to library population); higher = stronger binding
[1] = system: G-clamp-N3 (biotin conjugate); details: RNA library: Library-1 (pre-miRNA loops + repeats)
Outline: (§1)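 To score binding, a beads-only signal was subtracted, barcoded replicate probes were averaged with the highest and lowest dropped, and the value was converted to a Z-score using the library mean and standard deviation. The input was 1 μg of Cy5- or Cy3-end-labelled RNA library, heat-folded in phosphate/NaCl/KCl buffer and mixed for 60 min at 25 °C with streptavidin beads carrying 100 pmol of biotin-conjugated small molecule. Bound RNA was eluted in hot SDS and hybridised to a DNA barcode microarray at 55.5 °C for 20 h.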

[2] = system: TO-3-N3 (biotin conjugate); details: RNA library: Library-2
Outline: as §1

[3] = system: TO-3-N3-2 (biotin conjugate); details: RNA library: Library-2
Outline: as §1

[4] = system: TO-N3 (biotin conjugate); details: RNA library: Library-2
Outline: as §1

[5] = system: TO-N3-2 (biotin conjugate); details: RNA library: Library-2
Outline: as §1

Row | Sequence | pull-down binding Z-score [1] | pull-down binding Z-score [2] | pull-down binding Z-score [3] | pull-down binding Z-score [4] | pull-down binding Z-score [5]
1 | AGUAGCUGGGAAUACAGGUGUGUGCCACCAUGCCUCUACAAGCUACC [hsa-mir-7851] | -0.609 | -0.469 | -0.134 | -0.0861 | 0.445
2 | AGUAUGGAUUAAAUUUAUAUUUUCCUCGAUACU [hsa-mir-8084] | 0.482 | 0.413 | 0.212 | 0.316 | -0.547
3 | AGUAUUUUAAUCAUAGAUUGUAUUUAGUUAGUUUUUAAUACU [hsa-mir-4637] | -0.0232 | -0.732 | 0.157 | -0.955 | -0.965
4 | AGUCACUUACACUACAUGUCACU [hsa-mir-892a] | -0.82 | -0.926 | -0.63 | -1.08 | -0.587
5 | AGUCACUUAGAUUACAUGUCACU [hsa-mir-892c] | -1.24 | 0.00628 | 0.0543 | -0.172 | -0.486
6 | AGUCACUUAGAUUACAUGUGACU [hsa-mir-888] | 0.394 | 0.0487 | -0.513 | -0.368 | -0.915
7 | AGUCCAAAGGAAAGGGCU [hsa-mir-8077] | -0.578 | 0.999 | 0.232 | 0.822 | -0.0277
8 | AGUCCGUGCAUCCGCCCUUCGAUGCUUGGGUU [hsa-mir-3182] | -1.11 | -0.405 | -0.389 | -0.278 | 0.421
9 | AGUCCUGUAAUUAGAUCUCAGGACU [hsa-mir-625] | -0.0681 | -0.745 | -0.739 | -0.817 | -0.88
10 | AGUCUCUGAAGAGAGCUGUGGACUGA [hsa-mir-6721] | 1.18 | 0.726 | 0.732 | 0.839 | 0.916
11 | AGUCUGUCUCAUACCCAACCAGAUU [hsa-mir-205] | -1.11 | 0.258 | 0.167 | 0.14 | -0.233
12 | AGUGAAAUAAAGGUCCAUCUCCUGCCUAUUUAUUACUUUGCU [hsa-mir-1243] | -1.12 | -0.671 | -0.112 | -0.718 | -0.5
13 | AGUGAGCUGAGAUCACGCAACU [hsa-mir-1273f] | 0.617 | -0.37 | 0.00609 | 0.206 | 0.629
14 | AGUGAGGCGUCGGCUGUGUUUCU [hsa-mir-2110] | -0.519 | 0.387 | 0.174 | 0.741 | 1.03
15 | AGUGAGUUGAUUACUUCUCACU [hsa-mir-4676] | -0.179 | -0.0959 | -0.441 | -0.26 | -0.222
16 | AGUGCAGUAUGGUGAAGUCAAUCUGUAAU [hsa-mir-590] | 1.31 | -0.357 | 0.0335 | -0.148 | 0.424
17 | AGUGCCUCACAGCCGCACAGGACCGAGGAUGCU [hsa-mir-4737] | 0.613 | 0.0032 | -0.204 | 0.371 | 0.917
18 | AGUGCUAGGACACU [hsa-mir-374c] | -0.247 | -0.441 | -0.413 | -0.616 | -0.579

Row | Sequence | pull-down binding Z-score [1] | pull-down binding Z-score [2] | pull-down binding Z-score [3] | pull-down binding Z-score [4] | pull-down binding Z-score [5]
19 | AGUGGAAAAAGUUCUUUUCUUCCUCU [hsa-mir-3192] | 0.387 | 0.0782 | 0.895 | 0.0678 | -0.263
20 | AGUGGACGAGUCUCAUUA [hsa-mir-3193] | -0.476 | 0.224 | 0.319 | 0.678 | 0.613
21 | AGUGGCCAAUUCCU [hsa-mir-4251] | -0.851 | -0.482 | -0.313 | -0.607 | -0.274
22 | AGUGGUGCAAUCUCAGUUCACU [hsa-mir-3135a] | -0.112 | 0.121 | -0.238 | -0.0142 | -0.196
23 | AGUGUGCAGUCAUCCACACA [hsa-mir-4731] | -0.603 | -0.32 | -0.196 | -0.519 | -0.401
24 | AGUGUUGUUUUUUCCCCCGCCAAUAUU [hsa-mir-92b] | -0.606 | -0.34 | 0.29 | -0.16 | 0.0118
25 | AGUUACACAGCUCACGAGUGCCU [hsa-mir-370] | -0.352 | -0.261 | -0.0679 | 0.113 | 0.694
26 | AGUUAGAAUUCUUAAGUAUCAAAACUAAAU [hsa-mir-4760] | -1.22 | 0.216 | 0.252 | 0.106 | -0.12
27 | AGUUCAGGAGGUGGCACUGCUGUGUGUGAGCU [hsa-mir-6876] | 1.55 | 0.801 | 0.631 | 0.97 | 1.27
28 | AGUUCCUGAUUAAGAAAUGGAAUU [hsa-mir-4699] | -0.224 | -0.435 | -0.107 | -0.814 | -1
29 | AGUUCGCUUUUAUUAAUGACGAAUA [hsa-mir-410] | -0.994 | -0.624 | -0.0101 | -0.628 | -0.121
30 | AGUUGAACACUUGUUGGGACAACCU [hsa-mir-4421] | -0.336 | 0.939 | 0.156 | 0.971 | 0.711
31 | AGUUGGACACUCCAUGUGGUAGAGUGUC [hsa-mir-223] | 0.453 | 0.617 | -0.0653 | 0.563 | 0.0461
32 | AGUUGUGAAUUCUCAAAACACCU [hsa-mir-660] | -0.342 | -0.401 | -0.349 | -0.417 | -0.129
33 | AGUUUCUGGAAGUUCUGACAUUCCAGAAACU [hsa-mir-3199-1] | -0.18 | -0.846 | -0.409 | -1.1 | -0.95
34 | AGUUUCUGGAAUGUCAGAACUUCCAGAAACU [hsa-mir-3199-2] | -0.327 | 0.748 | 0.034 | 0.392 | -0.865
35 | AGUUUGUGAUAAUGUUUGUCUAUAUAGUUAUGAAUG [hsa-mir-4307] | 0.397 | -0.811 | -0.174 | -0.633 | -0.531
36 | AUAAUACGGAUUACGUUGUUA [hsa-mir-137] | -1.89 | -0.188 | -0.139 | 0.148 | -0.0367

From the supplement of paper PMC11865577
